We go through two molecules from US7994133B2, “Isozyme-specific antagonists of protein kinase C” (The Board of Trustees of the Leland Stanford Junior …, priority 2003, dated 2011).

What all share (format): cell-based
For assay [1], the system named is CHO cells. As to the kind of experiment: Real-time confocal imaging of PMA-induced εPKC translocation with mathematical modeling. The conditions noted are these: for C3 / C5 / C1: constant of bi-exponential fit; for C1: level of εPKC in the cytosol at steady state; for k − 2: rate of detachment from the membrane. As to the method:
(§1) CHO cells were grown on glass coverslips, and serum-starved as described in Example 4. For each experiment, cells were transferred to a commercially available metal coverslip holder (Molecular Probes) in which the coverslip formed the bottom of a 1 ml bath. The media was then replaced with extracellular buffer (120 mM NaCl, 5 mM KCl, 1.5 mM CaCl2, 1.5 mM MgCl2, 20 mM HEPES and 30 mM glucose). Cells were stimulated by either PMA (100 nM), or with ATP (1 mM) in extracellular buffer. Fluorescence images of GFP-tagged constructs were obtained using the 488 nm excitation line of a laser scanning confocal microscope (Pascal, Zeiss) and emission was collected through a 505-550 nm band pass filter. Cells were imaged on the stage of an inverted microscope (Axiovert 100M) using a 40× Zeiss Plan-apo oil immersion objective with 1.2 numerical aperture (NA). For dual color imaging of CFP and YFP fusion proteins, a spinning disk Nipkow confocal microscope was used. Cells were viewed using an inverted Olympus IX70 microscope with a 40× oil immersion Olympus objective (1.35NA) and images were acquired with a CCD camera (Hamamatsu) and 2×2 pixel binning. CFP was excited with the 442 nm laser line of a helium-cadmium laser (Kimmon) whereas YFP was imaged with the 514 nm line of an argon ion laser (Melles-Griot). To selectively photobleach YFP labeled proteins in local regions of the cytoplasm for FRAP experiments, the 514 nm line of an Enterprise laser (Coherent) at maximal power (˜400 mW) was used. For these experiments, a 60× oil immersion objective was used (1.4NA). Under these conditions, and by placing an iris in the beam path, it was possible to bleach 80% of the YFP fluorescence in 500 ms in an area of the cytosol measuring approximately 35 um2. Real time confocal images were acquired every 10-15 seconds for 20 minutes for experiments utilizing PMA, and every 5 seconds for a total duration of 3 minutes in the case of cells stimulated with ATP. Reagents were added to the cell chamber after the fifth image in each time series. […] All images were acquired at room temperature. Images were exported as 12 or 16 bit files and changes in fluorescence intensity were measured using MetaMorph® data analysis software (Universal Imaging Corp.). To monitor the translocation of PKC, a small region of interest was selected in the cytosol of each cell and fluorescence intensity values graphed against time after subtraction of background values and normalized so that the initial fluorescence was 100%. Averages of 10-15 cells from three independent experiments were used. To determine statistical significance, a 1 tail type 2 T-test (Microsoft excel) was used.
Mathematical modeling was obtained from data of cells expressing similar levels of the different εPKC ΨεRACK mutants. Non-linear least squares curve fitting analysis was performed using the EViews software (QMS) and differential equation analysis was performed using Berkeley Madonna™. All other methods for this Example were performed as described, for example, in Examples 4 and 6.
Fluorescence time courses were analyzed by a non-linear regression analysis with single and biexponential equations (1 and 2) as previously done by Nalefski and Newton Nalefski, E. A. & Newton, A. C., Biochemistry 40:13216-13229 (2001)], where I(t) is the concentration of observed molecules in the cytosol at time (t), and C1-5 are constants. I(t)=C1+C2e^(−C3(t)) 1. I(t)=C1+C2e^(−C3(t))+C4e^(−C5(t)) 2. Residual error graphs obtained using single exponential equations (FIG. 8A) and using biexponential equations (FIG. 8B) for the D(86)A εPKC mutant translocation process is shown in FIGS. 8A-8D. […] This process can be described as follows:
The value of C1 corresponds to the level of εPKC in the cytosol at steady state. It was next determined whether the hypothesis that the values obtained for C1 and C3 of D(86)A and Wt εPKCs are statistically equivalent. […]

Assay [2] deals with CHO cells. In words: Real-time confocal imaging of ATP-induced εPKC translocation. The conditions noted are these: 1 mM ATP; for time after stimulation at which translocation was apparent: GFP fusion. As to the method:
as §1
It was next determined whether differences in translocation rates of the different εPKCs were also observed when translocation was stimulated via receptor signaling rather than by PMA. ATP has been previously used to activate PKC in CHO cells by stimulating purinergic G protein-coupled receptors [Maasch, C. et al., FASEB J. 14:1653-1663 (2000)]. All methods for this Example were performed as described, for example, in Examples 4, 6 and 7.

The nature of assay [3]: Fluorescence recovery after photobleaching (FRAP) of cytoplasmic εPKCs. Particulars: average of at least 10 cells. As to the method:
CHO cells were grown on glass coverslips, and serum-starved as described in Example 4. For each experiment, cells were transferred to a commercially available metal coverslip holder (Molecular Probes) in which the coverslip formed the bottom of a 1 ml bath. The media was then replaced with extracellular buffer (120 mM NaCl, 5 mM KCl, 1.5 mM CaCl2, 1.5 mM MgCl2, 20 mM HEPES and 30 mM glucose). Cells were stimulated by either PMA (100 nM), or with ATP (1 mM) in extracellular buffer. Fluorescence images of GFP-tagged constructs were obtained using the 488 nm excitation line of a laser scanning confocal microscope (Pascal, Zeiss) and emission was collected through a 505-550 nm band pass filter. Cells were imaged on the stage of an inverted microscope (Axiovert 100M) using a 40× Zeiss Plan-apo oil immersion objective with 1.2 numerical aperture (NA). For dual color imaging of CFP and YFP fusion proteins, a spinning disk Nipkow confocal microscope was used. Cells were viewed using an inverted Olympus IX70 microscope with a 40× oil immersion Olympus objective (1.35NA) and images were acquired with a CCD camera (Hamamatsu) and 2×2 pixel binning. […] Under these conditions, and by placing an iris in the beam path, it was possible to bleach 80% of the YFP fluorescence in 500 ms in an area of the cytosol measuring approximately 35 um2. […] Images were exported as 12 or 16 bit files and changes in fluorescence intensity were measured using MetaMorph® data analysis software (Universal Imaging Corp.). To monitor the translocation of PKC, a small region of interest was selected in the cytosol of each cell and fluorescence intensity values graphed against time after subtraction of background values and normalized so that the initial fluorescence was 100%. […]
Different translocation rates may reflect differences in overall mobility (diffusion) of the εPKCs in cells. Therefore, fluorescence recovery after photobleaching (FRAP) of the cytoplasmic enzyme was measured; mobility of εPKCs was measured by monitoring the time required for the fluorescence to recover in a bleached region. […]

B1: D(86)A: εPKC mutant wherein D at position 86 of ΨεRACK on εPKC is substituted with an A (protein)
chain: MVVFNGLLKIKICEAVSLKPTAWSLRHAVGPRPATFLLDPYIALNVDDSRIGQTATKQKTNSPAWHDEFVTDVCNGRKIELAVFHAAPIGYDDFVANCTIQFEELLQNGSRHFEDWIDLEPEGRVYVIIDLSGSSGEAPKDNEERVFRERMRPRKRQGAVRRRVHQVNGHKFMATYLRQPTYCSHCRDFIWGVIGKQGYQCQVCTCVVHKRCHELIITKCAGLKKQETPDQVGSQRFSVNMPHKFGIHNYKVPTFCDHCGSLLWGLLRQGLQCKVCKMNVHRRCETNVAPNCGVDARGIAKVLADLGVTPDKITNSGQRRKKLIAGAESPQPASGGSPSEEDRSKSAPTSPCDQEIKELENNIRKALSFDNRGEEHRAASSPDGQLMSPGENGEVRQGQAKRLGLDEFNFIKVLGKGSFGKVMLAELKGKDEVYAVKVLKKDVILQDDDVDCTMTEKRILALARKHPYLTQLYCCFQTKDRLFFVMEYVNGGDLMFQIQRSRKFDEPRSRFYAAEVTSALMFLHQHGVIYRDLKLDNILLDAEGHCKLADFGMCKEGILNGVTTTTFCGTPDYIAPEILQELEYGPSVDWWALGVLMYEMMAGQPPFEADNEDDLFESILHDDVLYPVWLSKEAVSILKAFMTKNPHKRLGCVASQNGEDAIKQHPFFKEIDWVLLEQKKIKPPFKPRIKTKRDVNNFDQDFTREEPVLTLVDEAIVKQINQEEFKGFSYFGEDLMP
As to B1, in assay [1] (100 nM PMA, GFP fusion), the “rate of translocation (decrease of fluorescence in the cytoplasm)” value is reported as “faster rate” and the “time at which translocation to the cell periphery became apparent” value was “within one minute”. The “time after PMA stimulation at which the enzyme was found at the cell periphery” value in assay [1] (YFP-εPKC D(86)A and CFP-εPKC Wt co-transfected in the same cell, 100 nM PMA) was 1.5 min. In addition, in assay [1] (calculated with k-1 negligible), the “(k2 + k − 2) = C3” value is 0.016 ± 0.001, the “k − 2/(k2 + k − 2) = C1/100” value is listed as 0.306 ± 0.002 and the “k − 2” value is 0.005 ± 0.0004. In assay [1] (100 nM PMA), this molecule came in with a C3 of 0.016 ± 0.001, a C5 of 0.040 ± 0.007 and a C1 of 30.59 ± 0.286. The “k − 1” value in assay [1] (rate of closing in the cytosol, assumed negligible) is listed as ~0. Further, in assay [1] (rate of εPKC binding to the membrane, calculated with k-1 negligible), the k2 was 0.011 ± 0.003. In addition, in assay [1] (rate of εPKC opening in the cytosol, calculated with k-1 negligible), the “k1 = C5” value was 0.040 ± 0.007. In assay [2], the “time after stimulation at which translocation was apparent” value was found to be 10 s. Also, in assay [3], the “time to fifty percent FRAP” value turned out to be 9.2 ± 1.1 s.

B2: D(86)N: εPKC mutant wherein D at position 86 of ΨεRACK in εPKC is substituted with an N (protein)
chain: MVVFNGLLKIKICEAVSLKPTAWSLRHAVGPRPATFLLDPYIALNVDDSRIGQTATKQKTNSPAWHDEFVTDVCNGRKIELAVFHNAPIGYDDFVANCTIQFEELLQNGSRHFEDWIDLEPEGRVYVIIDLSGSSGEAPKDNEERVFRERMRPRKRQGAVRRRVHQVNGHKFMATYLRQPTYCSHCRDFIWGVIGKQGYQCQVCTCVVHKRCHELIITKCAGLKKQETPDQVGSQRFSVNMPHKFGIHNYKVPTFCDHCGSLLWGLLRQGLQCKVCKMNVHRRCETNVAPNCGVDARGIAKVLADLGVTPDKITNSGQRRKKLIAGAESPQPASGGSPSEEDRSKSAPTSPCDQEIKELENNIRKALSFDNRGEEHRAASSPDGQLMSPGENGEVRQGQAKRLGLDEFNFIKVLGKGSFGKVMLAELKGKDEVYAVKVLKKDVILQDDDVDCTMTEKRILALARKHPYLTQLYCCFQTKDRLFFVMEYVNGGDLMFQIQRSRKFDEPRSRFYAAEVTSALMFLHQHGVIYRDLKLDNILLDAEGHCKLADFGMCKEGILNGVTTTTFCGTPDYIAPEILQELEYGPSVDWWALGVLMYEMMAGQPPFEADNEDDLFESILHDDVLYPVWLSKEAVSILKAFMTKNPHKRLGCVASQNGEDAIKQHPFFKEIDWVLLEQKKIKPPFKPRIKTKRDVNNFDQDFTREEPVLTLVDEAIVKQINQEEFKGFSYFGEDLMP
As for B2, in assay [1] (100 nM PMA, GFP fusion), the “steady state level of fluorescence in the cytoplasm” value was “higher level” and the “time at which translocation to the cell periphery became apparent” value was 5 min. Also, in assay [1] (100 nM PMA), the C3 is 0.010 ± 0.0003, the C5 was 0.034 ± 0.004 and the C1 came out at 38.38 ± 0.254. The molecule further gave a k2 in assay [1] (rate of binding to the membrane, simulations using differential equations) of 0.01138. Moreover, in assay [1] (rate of closing, simulations using differential equations), the “k − 1” value is reported as 0.005. Moreover, the “k − 2” value in assay [1] (simulations using differential equations) is 0.0052. For the same molecule, in assay [1] (rate of opening, simulations using differential equations, k1 = C5 not valid), the k1 was 0.0135. Also, in assay [2], the “steady state level compared with D(86)A or Wt” value was “significantly higher levels”, the “translocation rate in comparison to wild type” value is recorded as “slower translocation rate” and the “time after stimulation at which translocation was apparent” value was determined as 40 s. For the same molecule, the “time to fifty percent FRAP” value in assay [3] worked out at 9.1 ± 1.6 s.
